Columns and labels:
IL-2Rβγ complex [1] = biological target: T1, IL-2Rβγ complex (UniProt P14784 27-551; P31785 23-369); assay: SPR; Biacore, IL-2 receptor proteins immobilised on a CM5 chip; wild-type IL-2 or variant 012 flowed over at stepwise concentrations for 120 s, then blank solution; 1:1 binding fit (steady state affinity for 001 on IL-2Rα); details: both partners purified
IL-2Rαβγ complex = IL-2Rαβγ complex (UniProt P01589 22-272; P14784 27-551; P31785 23-369); assay: as above; details: both partners purified
IL-2Rβγ complex [2] = biological target: T1, IL-2Rβγ complex; assay: cell-based or functional assay

T1 sequence (P14784 27-551, chain 1 of 2): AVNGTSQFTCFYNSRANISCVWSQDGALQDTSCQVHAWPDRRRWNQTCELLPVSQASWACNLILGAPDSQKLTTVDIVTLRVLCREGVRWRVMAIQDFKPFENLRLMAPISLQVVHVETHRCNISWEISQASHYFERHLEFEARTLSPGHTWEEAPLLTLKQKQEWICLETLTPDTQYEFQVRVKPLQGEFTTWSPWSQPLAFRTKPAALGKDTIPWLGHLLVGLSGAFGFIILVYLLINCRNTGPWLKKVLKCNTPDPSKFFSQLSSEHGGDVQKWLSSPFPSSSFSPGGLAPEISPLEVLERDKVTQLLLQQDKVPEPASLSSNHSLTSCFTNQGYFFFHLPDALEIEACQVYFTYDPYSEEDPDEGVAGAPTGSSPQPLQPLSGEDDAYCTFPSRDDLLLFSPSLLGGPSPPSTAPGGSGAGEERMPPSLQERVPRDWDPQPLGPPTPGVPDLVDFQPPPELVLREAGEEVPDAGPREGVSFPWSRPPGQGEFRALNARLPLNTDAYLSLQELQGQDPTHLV
T1 sequence (P31785 23-369, chain 2 of 2): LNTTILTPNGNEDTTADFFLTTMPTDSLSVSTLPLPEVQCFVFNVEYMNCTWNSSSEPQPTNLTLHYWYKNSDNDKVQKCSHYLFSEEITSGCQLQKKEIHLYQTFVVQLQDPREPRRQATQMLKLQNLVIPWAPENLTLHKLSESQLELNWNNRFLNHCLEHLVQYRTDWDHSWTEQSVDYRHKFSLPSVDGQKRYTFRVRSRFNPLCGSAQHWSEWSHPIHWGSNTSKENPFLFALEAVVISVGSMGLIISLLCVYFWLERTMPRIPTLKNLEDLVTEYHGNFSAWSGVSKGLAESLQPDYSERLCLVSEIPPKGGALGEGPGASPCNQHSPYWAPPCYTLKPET
Chain of IL-2Rαβγ complex (P01589 22-272, chain 1 of 3): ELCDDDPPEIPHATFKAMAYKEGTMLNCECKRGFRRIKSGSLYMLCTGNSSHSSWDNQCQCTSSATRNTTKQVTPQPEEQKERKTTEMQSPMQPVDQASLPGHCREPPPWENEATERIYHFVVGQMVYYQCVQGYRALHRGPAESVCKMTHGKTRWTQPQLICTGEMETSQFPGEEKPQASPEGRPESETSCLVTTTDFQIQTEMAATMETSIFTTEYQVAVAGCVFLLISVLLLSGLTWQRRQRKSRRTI
Chain of IL-2Rαβγ complex (P14784 27-551, chain 2 of 3): as the sequence (P14784 27-551, chain 1 of 2) above
Chain of IL-2Rαβγ complex (P31785 23-369, chain 3 of 3): as the sequence (P31785 23-369, chain 2 of 2) above

Kd (IL-2Rβγ complex [1]): 0.467 nM | koff (IL-2Rβγ complex [1]): 0.00106 s⁻¹ | Kd (IL-2Rαβγ complex): 0.575 nM | koff (IL-2Rαβγ complex): 0.000732 s⁻¹ | EC50 of STAT5 activation (pSTAT5) in CD8 T cells of human PBMC (Table S4) (IL-2Rβγ complex [2]): 18.6 nM | EC50 of STAT5 activation (pSTAT5) in NK cells of human PBMC (Table S4) (IL-2Rβγ complex [2]): 5.11 nM
B1: IL-2 variant 012 (ligand)
chain: PTSSSTKKTQLQLEHLLLDLQMILNGINNYKNPLRPRDLISNINVIVLELKGSETTELKHLQSLEEELKDLEEVLNLAQSKNFHTIVEFLNRWITFSQSIISTLT
notes: also called βγ-only IL-2v

Reference: article PMC11024467, “A novel dual mechanism-of-action bispecific PD-1-IL-2v armed by a “βγ-only” interleukin-2 variant” (Frontiers in Immunology, 2024)
